# Reference: US7966133B2, “Method of identifying a potential substrates of an O-methyltransferase” (The Salk Institute for Biological Studies, priority 2000, dated 2011)
# “Also recorded” adds a separate entry of the source.
# Tests used:
# [1] = aqueous solution; cited from earlier work
# nod genes = details: among compounds released from alfalfa roots; via nodD1 and nodD2; cited from earlier work
# IOMT = experiment: Qualitative enzyme activity assay, IOMT (14C-SAM, TLC autoradiography); assay type: biochemical, Medicago sativa L; details: expressed in E. coli
# ChOMT = experiment: Qualitative enzyme activity assay, ChOMT (14C-SAM, TLC autoradiography); assay type: biochemical, Medicago sativa L; details: 20 μg protein, 500 μM 2′,4,4′-trihydroxychalcone, 500 μM 14C-SAM, 2 hr room temperature; FIG. 7A
Molecule,methyltransferase activity of ChOMT His 278 mutants (ChOMT),further results
"O=C1c2ccc(O)cc2OC(O)C1c1ccc(O)cc1 (centres unmarked) [2,7,4′-trihydroxyisoflavanone]",,aqueous stability [1]: lack of aqueous stability; also recorded: unstable in aqueous solution
"COc1cc(O)ccc1C(=O)/C=C/c1ccc(O)cc1 [4,4′-dihydroxy-2′-methoxychalcone]",,transcriptional activation of nod genes (nod genes): most efficient transcriptional activator
"IOMT: Isoflavone O-methyltransferase (SEQ ID NO:4) from Medicago sativa L, recombinant wild type (protein, listed as Medicago sativa) MASSINGRKPSEIFKAQALLYKHIYAFIDSMSLKWAVGMNIPNIIHNHGKPISLSNLVSILQVPSSKIGNVRRLMRYLAHNGFFEIITKEEESYALTVASELLVRGSDLCLAPMVECVLDPTLSGSYHELKKWIYEEDLTLFGVTLGSGFWDFLDKNPEYNTSFNDAMASDSKLINLALRDCDFVFDGLESIVDVGGGTGTTAKIICETFPKLKCIVFDRPQVVENLSGSNNLTYVGGDMFTSIPNADAVLLKYILHNWTDKDCLRILKKCKEAVTNDGKRGKVTIIDMVINEKKDENQVTQIKLLMDVNMACLNGKERNEEEWKKLFIEAGFQHYKISPLTGFLSLIEIYP",,specific activity of recombinant IOMT (IOMT): comparable to published values
"H278L: ChOMT catalytic histidine mutant, His 278 to leucine (protein, listed as Medicago sativa) MGNSYITKEDNQISATSEQTEDSACLSAMVLTTNLVYPAVLNAAIDLNLFEIIAKATPPGAFMSPSEIASKLPASTQHSDLPNRLDRMLRLLASYSVLTSTTRTIEDGGAERVYGLSMVGKYLVPDESRGYLASFTTFLCYPALLQVWMNFKEAVVDEDIDLFKNVHGVTKYEFMGKDKKMNQIFNKSMVDVCATEMKRMLEIYTGFEGISTLVDVGGGSGRNLELIISKYPLIKGINFDLPQVIENAPPLSGIEHVGGDMFASVPQGDAMILKAVCLNWSDEKCIEFLSNCHKALSPNGKVIIVEFILPEEPNTSEESKLVSTLDNLMFITVGGRERTEKQYEKLSKLSGFSKFQVACRAFNSLGVMEFYK",completely eliminated methyltransferase activity,
"H278K: ChOMT catalytic histidine mutant, His 278 to lysine (protein, listed as Medicago sativa) MGNSYITKEDNQISATSEQTEDSACLSAMVLTTNLVYPAVLNAAIDLNLFEIIAKATPPGAFMSPSEIASKLPASTQHSDLPNRLDRMLRLLASYSVLTSTTRTIEDGGAERVYGLSMVGKYLVPDESRGYLASFTTFLCYPALLQVWMNFKEAVVDEDIDLFKNVHGVTKYEFMGKDKKMNQIFNKSMVDVCATEMKRMLEIYTGFEGISTLVDVGGGSGRNLELIISKYPLIKGINFDLPQVIENAPPLSGIEHVGGDMFASVPQGDAMILKAVCKNWSDEKCIEFLSNCHKALSPNGKVIIVEFILPEEPNTSEESKLVSTLDNLMFITVGGRERTEKQYEKLSKLSGFSKFQVACRAFNSLGVMEFYK",completely eliminated methyltransferase activity,
"H278N: ChOMT catalytic histidine mutant, His 278 to asparagine (protein, listed as Medicago sativa) MGNSYITKEDNQISATSEQTEDSACLSAMVLTTNLVYPAVLNAAIDLNLFEIIAKATPPGAFMSPSEIASKLPASTQHSDLPNRLDRMLRLLASYSVLTSTTRTIEDGGAERVYGLSMVGKYLVPDESRGYLASFTTFLCYPALLQVWMNFKEAVVDEDIDLFKNVHGVTKYEFMGKDKKMNQIFNKSMVDVCATEMKRMLEIYTGFEGISTLVDVGGGSGRNLELIISKYPLIKGINFDLPQVIENAPPLSGIEHVGGDMFASVPQGDAMILKAVCNNWSDEKCIEFLSNCHKALSPNGKVIIVEFILPEEPNTSEESKLVSTLDNLMFITVGGRERTEKQYEKLSKLSGFSKFQVACRAFNSLGVMEFYK",completely eliminated methyltransferase activity,
"H278Q: ChOMT catalytic histidine mutant, His 278 to glutamine (protein, listed as Medicago sativa) MGNSYITKEDNQISATSEQTEDSACLSAMVLTTNLVYPAVLNAAIDLNLFEIIAKATPPGAFMSPSEIASKLPASTQHSDLPNRLDRMLRLLASYSVLTSTTRTIEDGGAERVYGLSMVGKYLVPDESRGYLASFTTFLCYPALLQVWMNFKEAVVDEDIDLFKNVHGVTKYEFMGKDKKMNQIFNKSMVDVCATEMKRMLEIYTGFEGISTLVDVGGGSGRNLELIISKYPLIKGINFDLPQVIENAPPLSGIEHVGGDMFASVPQGDAMILKAVCQNWSDEKCIEFLSNCHKALSPNGKVIIVEFILPEEPNTSEESKLVSTLDNLMFITVGGRERTEKQYEKLSKLSGFSKFQVACRAFNSLGVMEFYK",completely eliminated methyltransferase activity,
"H278A: ChOMT catalytic histidine mutant, His 278 to alanine (protein, listed as Medicago sativa) MGNSYITKEDNQISATSEQTEDSACLSAMVLTTNLVYPAVLNAAIDLNLFEIIAKATPPGAFMSPSEIASKLPASTQHSDLPNRLDRMLRLLASYSVLTSTTRTIEDGGAERVYGLSMVGKYLVPDESRGYLASFTTFLCYPALLQVWMNFKEAVVDEDIDLFKNVHGVTKYEFMGKDKKMNQIFNKSMVDVCATEMKRMLEIYTGFEGISTLVDVGGGSGRNLELIISKYPLIKGINFDLPQVIENAPPLSGIEHVGGDMFASVPQGDAMILKAVCANWSDEKCIEFLSNCHKALSPNGKVIIVEFILPEEPNTSEESKLVSTLDNLMFITVGGRERTEKQYEKLSKLSGFSKFQVACRAFNSLGVMEFYK",completely eliminated methyltransferase activity,
